These results are taken from patent US11471538B2, “Methods and pharmaceutical compositions for the treatment of cancers associated with activation of the MAPK pathway” (INSERM (Institut National de la Santé et de la Recherche …, priority 2017, dated 2022).

The test system of assay [1] is SLITRK6 mRNA. The experiment in a line: SLITRK6 mRNA expression by Q-PCR in BRAF-mutant melanoma cells under MAPK inhibitor treatment. Format: cell-based. The conditions noted are these: PLX4032 1 μM alone or with AZD6244 0.1 μM; A375, Lu1205, WM266-4, WM983B, WM35, WM115 cells; 72 h for WM35 and WM115. On the procedure: FIG. 1. SLITRK6 mRNA expression is induced under MAPK inhibitor treatment in BRAF-mutant melanoma cells. A) A375, Lu1205, WM266-4 and WM983B cell lines were treated with a BRAF inhibitor (PLX4032) at 1 μM alone or in combination with a 0.1 μM MEK inhibitor (AZD6244). mRNA fold increase relative to the DMSO control is determined by Q-PCR. The results are presented as the mean±SD of the average of 3 independent experiments. *** p<0.001; T-test. B) BRAF-mutant melanoma cells lines WM35 and WM115 were treated with a BRAF inhibitor (PLX4032, 1 μM) alone or in combination with a MEK inhibitor (AZD6244, 0.1 μM) for 72 h and SLITRK6 mRNA was analyzed by RT-qPCR. Data shown are the means±standard deviation of 3 independent experiments. ** p<0.01; * p<0.05; t-test.

Assay [2] has as its system SLITRK6. The experiment in a line: Staining of A375 cells for SLITRK6: antibody internalization. The assay is classed as cell-based. The conditions noted are these: si-Ctl or si-SLITRK6, PLX4032 1 μM alone or with AZD6244 0.1 μM for 48 h. On the procedure:
FIG. 6. […] A375 cells were transfected with siRNA control (si-Ctl) or targeting SLITRK6 (si-SLITRK6) before treatment with PLX4032 (1 μM) alone or in combination with AZD6244 (0.1 μM) for 48 h. Cells were then stained for SLITRK6 (green) and DNA was counterstained with DAPI (blue).

Assay [3] has as its system SLITRK6. Description: Staining of A375 cells for SLITRK6: antibody binding at the membrane. The following applies: si-Ctl or si-SLITRK6, PLX4032 1 μM alone or with AZD6244 0.1 μM for 48 h. On the procedure: FIG. 5. […] A375 cells were transfected with siRNA control (si-Ctl) or targeting SLITRK6 (si-SLITRK6) before treatment with PLX4032 (1 μM) alone or in combination with AZD6244 (0.1 μM) for 48 h. Cells were then stained for SLITRK6 (green) and DNA was counterstained with DAPI (blue).

Setting [4] is: listed as antibody against SLITRK6.

For `CCCS(=O)(=O)Nc1ccc(F)c(C(=O)c2c[nH]c3ncc(-c4ccc(Cl)cc4)cc23)c1F` [PLX4032], in assay [1], the “SLITRK6 mRNA expression (fold increase relative to the DMSO control)” value was “induced”.

B1: Hal5-10acl2: antibody directed against SLITRK6, produced by CHO cell ATCC PTA-13102; VH SEQ ID NO: 1, VL SEQ ID NO: 2 (antibody, V domains shown)
VH: QVQLVESGGGVVQPGRSLRLSCAASGFTFSSYGMHWVRQAPGKGLEWVAVIWYDGSNQYYADSVKGRFTISRDNSKNTLFLQMHSLRAEDTAVYYCARGLTSGRYGMDVWGQGTTVTVSS
VL: DIVMTQSPLSLPVTPGEPASISCRSSQSLLLSHGFNYLDWYLQKPGQSPQLLIYLGSSRASGVPDRFSGSGSGTDFTLKISRVEAEDVGLYYCMQPLQIPWTFGQGTKVEIKR
modifications: Synthetic heavy chain variable region of Hal5-10acl2; Synthetic light chain variable region of Hal5-10acl2
B1: the “internalization of the antibody and its target” value is recorded as “internalizes the tumor cells only after a treatment with a MAPK inhibitor” in assay [2] and “internalizes its target specifically only after MAPKi treatment” in assay [2] (setting [4]). Moreover, the “binding of the antibody to SLITRK6 at the cell membrane” value is on record as “binds to melanoma cells only when the cells are treated with a MAMPK inhibitor” in assay [3] and “binds its target specifically at the membrane only after MAPK inhibitor treatment” in assay [3] (setting [4]).
